In US8440629B2:

Columns and labels:
[1] = target: full-length LRP1 expressed on CHO-K1 cells
LRP6 CR12 (human) = LRP6 CR12 (human) (UniProt O75581); assay: solid-phase binding assay, immobilised CR protein, anti-RAP detection
VLDLR CR78 (human) = VLDLR CR78 (human) (UniProt P98155); assay: as above
VLDLR CR6-8 (human) = VLDLR CR6-8 (human) (UniProt P98155); assay: as above
LRP6 CR23 (human) = LRP6 CR23 (human) (UniProt O75581); assay: as above
LRP6 CR1-3 (human) = LRP6 CR1-3 (human) (UniProt O75581); assay: as above
[2] = target: recombinant mouse VLDLR ectodomain (mouse) (UniProt P98156); assay: solid-phase binding assay, immobilised receptor, streptavidin-HRP detection, EDTA-corrected

## mRAPc combined with streptavidin-saporin conjugate
[1]
  viable cell number (MTT assay, 48 hours): 40%

## RAP d3 (ligand)
LRP6 CR12 (human)
  binding as percent of that for LRP1 CR3-5: < 5%
VLDLR CR78 (human)
  binding as percent of that for LRP1 CR3-5: < 5%
VLDLR CR6-8 (human)
  Kd: > 300 nM
LRP6 CR23 (human)
  binding as percent of that for LRP1 CR3-5: < 5%
LRP6 CR1-3 (human)
  binding as percent of that for LRP1 CR3-5: < 5%

## tag-free RAP d3 peptide linked to maleimide-PEO2-biotin (ligand)
[2]
  Kd: 1 nM
